No end group written: not given here.
Experiments:
Assay in all cases: PathHunter β-arrestin assay
Type in all cases: cell-based
MRGPRX1 = molecular target: T1, MRGPRX1 (Homo sapiens, UniProt Q96LB2); conditions: screen, control agonist; CHO, 37C, 2HR
T1 construct: purchased Eurofins DiscoverX (PathHunter gpcrMAX)

MRGPRX2 = molecular target: T2, MRGPRX2 (Homo sapiens, UniProt Q96LB1); conditions: control agonist
T2 sequence (Q96LB1 1-330): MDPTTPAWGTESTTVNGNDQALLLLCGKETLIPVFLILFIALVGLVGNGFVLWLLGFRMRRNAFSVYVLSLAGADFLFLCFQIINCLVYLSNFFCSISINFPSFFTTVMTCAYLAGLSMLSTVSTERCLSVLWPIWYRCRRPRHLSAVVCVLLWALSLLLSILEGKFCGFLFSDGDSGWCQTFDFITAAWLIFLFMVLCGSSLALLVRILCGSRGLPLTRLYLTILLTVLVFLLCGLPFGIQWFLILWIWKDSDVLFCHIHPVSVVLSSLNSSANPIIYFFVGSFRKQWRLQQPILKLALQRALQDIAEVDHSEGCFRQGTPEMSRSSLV
Procedure: (§1) Follow up experiments were prioritized based on the difference between S/N and CoV. Targets with a >5-fold difference between S/N and CoV were investigated for their potential contribution to the AMB-FUBINACA toxidrome with 10-point concentration-response curves generated in technical replicate (range 1.5–30 μM) using the EC80 of the relevant agonist, where applicable in antagonist mode. Simultaneous agonist and antagonist curves were run in parallel to ensure reliability of the assay (see Supplementary Table 2), with both RC50 and signal to background aligning with historical averages, and Z' >0.5. RC50 was estimated using a four-parameter fit (CBIS Data Analysis Suite, ChemInnovation, San Diego, CA) on normalized data.

GLP2R = molecular target: T3, GLP2R (Homo sapiens, UniProt O95838); conditions: control agonist
T3 sequence (O95838 1-553): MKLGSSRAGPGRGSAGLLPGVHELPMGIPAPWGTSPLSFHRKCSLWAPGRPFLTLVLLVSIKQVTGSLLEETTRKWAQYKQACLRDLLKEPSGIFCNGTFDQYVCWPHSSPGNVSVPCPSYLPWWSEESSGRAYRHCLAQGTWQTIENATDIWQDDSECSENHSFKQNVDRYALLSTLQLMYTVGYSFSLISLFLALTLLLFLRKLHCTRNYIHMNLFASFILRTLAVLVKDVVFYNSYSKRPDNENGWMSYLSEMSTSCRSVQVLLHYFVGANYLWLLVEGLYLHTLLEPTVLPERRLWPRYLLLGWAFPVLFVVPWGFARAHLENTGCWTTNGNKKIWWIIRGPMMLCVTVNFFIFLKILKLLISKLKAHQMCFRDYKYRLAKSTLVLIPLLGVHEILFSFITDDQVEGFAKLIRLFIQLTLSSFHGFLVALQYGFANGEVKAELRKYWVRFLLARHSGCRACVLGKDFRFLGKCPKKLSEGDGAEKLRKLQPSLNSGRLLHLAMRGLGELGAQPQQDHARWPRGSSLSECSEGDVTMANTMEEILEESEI
Procedure: as §1

GRPR = molecular target: T4, GRPR (Homo sapiens, UniProt P30550); conditions: control agonist
T4 construct: purchased Eurofins DiscoverX (PathHunter gpcrMAX)
Procedure: as §1

MCHR2 = molecular target: T5, MCHR2 (Homo sapiens, UniProt Q969V1); conditions: screen, control agonist; U2OS, 37C, 2HR
T5 construct: purchased Eurofins DiscoverX (PathHunter gpcrMAX)

MLNR = molecular target: T6, MLNR (Homo sapiens, UniProt O43193); conditions: screen, control agonist; CHO, 37C, 2HR
T6 construct: purchased Eurofins DiscoverX (PathHunter gpcrMAX)

NMU1R = molecular target: T7, NMU1R (Homo sapiens, UniProt Q9HB89); conditions: screen, control agonist; U2OS, 37C, 2HR
T7 construct: purchased Eurofins DiscoverX (PathHunter gpcrMAX)
T7 sequence (Q9HB89 1-426): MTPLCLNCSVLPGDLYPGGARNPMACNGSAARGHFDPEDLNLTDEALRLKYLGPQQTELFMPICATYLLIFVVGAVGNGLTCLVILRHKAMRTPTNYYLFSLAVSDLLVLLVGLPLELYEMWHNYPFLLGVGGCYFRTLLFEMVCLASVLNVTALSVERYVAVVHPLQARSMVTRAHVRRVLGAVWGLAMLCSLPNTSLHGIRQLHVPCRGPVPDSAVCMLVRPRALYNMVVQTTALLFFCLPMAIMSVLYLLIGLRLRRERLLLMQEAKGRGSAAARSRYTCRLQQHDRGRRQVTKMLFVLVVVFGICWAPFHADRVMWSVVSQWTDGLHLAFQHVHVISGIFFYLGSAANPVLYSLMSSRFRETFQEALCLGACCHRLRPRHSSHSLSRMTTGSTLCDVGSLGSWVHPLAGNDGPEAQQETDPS

NPBWR1 = molecular target: T8, NPBWR1 (Homo sapiens, UniProt P48145); conditions: screen, control agonist; CHO, RT, 2HR
T8 construct: purchased Eurofins DiscoverX (PathHunter gpcrMAX)
T8 sequence (P48145 1-328): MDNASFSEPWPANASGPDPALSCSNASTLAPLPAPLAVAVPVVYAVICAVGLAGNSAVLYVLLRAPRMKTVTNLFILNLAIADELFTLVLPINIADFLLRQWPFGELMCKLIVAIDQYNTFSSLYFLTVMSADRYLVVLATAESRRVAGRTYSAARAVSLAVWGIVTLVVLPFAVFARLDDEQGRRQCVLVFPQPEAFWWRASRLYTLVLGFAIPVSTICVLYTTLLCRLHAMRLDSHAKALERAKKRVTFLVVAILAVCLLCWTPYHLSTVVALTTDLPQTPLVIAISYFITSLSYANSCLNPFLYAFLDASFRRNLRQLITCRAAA

NPBWR2 = molecular target: T9, NPBWR2 (Homo sapiens, UniProt P48146); conditions: screen, control agonist; CHO, 37C, 2HR
T9 construct: purchased Eurofins DiscoverX (PathHunter gpcrMAX)

NPFFR1 = molecular target: T10, NPFFR1 (Homo sapiens, UniProt Q9GZQ6); conditions: screen, control agonist; CHO, 37C, 2HR
T10 construct: purchased Eurofins DiscoverX (PathHunter gpcrMAX)

CCR10 = molecular target: T11, CCR10 (Homo sapiens, UniProt P46092); conditions: control agonist
T11 sequence (P46092 1-362): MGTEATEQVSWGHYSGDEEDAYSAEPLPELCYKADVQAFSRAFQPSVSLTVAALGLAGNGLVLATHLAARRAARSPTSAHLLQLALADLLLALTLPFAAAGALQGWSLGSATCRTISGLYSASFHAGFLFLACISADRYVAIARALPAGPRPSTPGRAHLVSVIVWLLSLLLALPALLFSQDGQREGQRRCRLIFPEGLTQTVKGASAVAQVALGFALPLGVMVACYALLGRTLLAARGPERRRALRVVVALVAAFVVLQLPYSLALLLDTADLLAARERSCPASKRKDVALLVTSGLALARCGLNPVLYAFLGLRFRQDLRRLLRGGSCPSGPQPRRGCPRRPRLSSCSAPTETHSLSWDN
Procedure: as §1

[1] = follow-up concentration-response assays

T4 sequence (P30550 whole entry): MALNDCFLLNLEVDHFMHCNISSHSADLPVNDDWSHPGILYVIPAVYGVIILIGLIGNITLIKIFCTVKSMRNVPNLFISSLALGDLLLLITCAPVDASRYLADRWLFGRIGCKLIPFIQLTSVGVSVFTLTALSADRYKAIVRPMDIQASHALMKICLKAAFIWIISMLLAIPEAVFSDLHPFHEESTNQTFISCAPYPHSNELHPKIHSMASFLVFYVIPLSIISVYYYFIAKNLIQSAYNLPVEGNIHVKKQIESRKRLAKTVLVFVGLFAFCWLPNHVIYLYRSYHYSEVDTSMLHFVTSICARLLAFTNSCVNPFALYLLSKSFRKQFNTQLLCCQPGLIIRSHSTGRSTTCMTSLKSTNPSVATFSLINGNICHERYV
T5 sequence (Q969V1 whole entry): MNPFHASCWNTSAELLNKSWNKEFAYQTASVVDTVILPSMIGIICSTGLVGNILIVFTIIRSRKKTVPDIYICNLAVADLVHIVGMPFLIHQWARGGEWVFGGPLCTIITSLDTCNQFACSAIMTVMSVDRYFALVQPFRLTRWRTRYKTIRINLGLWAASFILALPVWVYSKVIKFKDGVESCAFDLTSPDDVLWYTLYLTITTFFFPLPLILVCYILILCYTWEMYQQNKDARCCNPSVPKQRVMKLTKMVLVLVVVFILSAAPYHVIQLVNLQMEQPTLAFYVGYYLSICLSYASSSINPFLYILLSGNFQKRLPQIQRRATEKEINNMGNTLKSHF
T10 sequence (Q9GZQ6 whole entry): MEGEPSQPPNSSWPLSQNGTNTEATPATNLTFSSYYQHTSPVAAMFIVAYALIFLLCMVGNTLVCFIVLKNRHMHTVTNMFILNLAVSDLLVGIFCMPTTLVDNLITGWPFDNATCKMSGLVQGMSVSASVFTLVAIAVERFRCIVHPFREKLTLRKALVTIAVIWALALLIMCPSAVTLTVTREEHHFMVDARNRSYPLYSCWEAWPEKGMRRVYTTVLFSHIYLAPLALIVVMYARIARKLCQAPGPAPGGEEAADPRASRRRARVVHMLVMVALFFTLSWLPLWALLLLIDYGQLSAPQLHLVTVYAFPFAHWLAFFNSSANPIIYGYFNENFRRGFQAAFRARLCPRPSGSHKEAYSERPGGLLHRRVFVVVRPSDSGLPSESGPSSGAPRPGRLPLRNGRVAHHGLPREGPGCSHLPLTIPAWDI
T9 sequence (P48146 whole entry): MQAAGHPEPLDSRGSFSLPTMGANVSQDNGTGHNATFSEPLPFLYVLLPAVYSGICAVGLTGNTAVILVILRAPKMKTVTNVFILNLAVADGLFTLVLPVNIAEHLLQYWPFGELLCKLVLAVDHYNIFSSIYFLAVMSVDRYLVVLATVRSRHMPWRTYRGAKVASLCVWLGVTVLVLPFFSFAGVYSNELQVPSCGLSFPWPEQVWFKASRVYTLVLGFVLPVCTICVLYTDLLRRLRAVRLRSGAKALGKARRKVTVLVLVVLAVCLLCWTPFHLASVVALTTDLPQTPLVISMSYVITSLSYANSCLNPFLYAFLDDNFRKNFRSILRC
T1 sequence (Q96LB2 whole entry): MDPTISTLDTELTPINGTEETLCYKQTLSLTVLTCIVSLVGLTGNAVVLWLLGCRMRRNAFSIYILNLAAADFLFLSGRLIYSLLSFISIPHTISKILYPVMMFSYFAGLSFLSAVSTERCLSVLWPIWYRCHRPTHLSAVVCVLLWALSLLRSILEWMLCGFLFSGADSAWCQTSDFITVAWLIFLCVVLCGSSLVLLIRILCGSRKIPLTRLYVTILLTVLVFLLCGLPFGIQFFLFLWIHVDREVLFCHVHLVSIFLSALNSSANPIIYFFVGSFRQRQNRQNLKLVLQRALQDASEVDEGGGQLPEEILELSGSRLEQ
T6 sequence (O43193 whole entry): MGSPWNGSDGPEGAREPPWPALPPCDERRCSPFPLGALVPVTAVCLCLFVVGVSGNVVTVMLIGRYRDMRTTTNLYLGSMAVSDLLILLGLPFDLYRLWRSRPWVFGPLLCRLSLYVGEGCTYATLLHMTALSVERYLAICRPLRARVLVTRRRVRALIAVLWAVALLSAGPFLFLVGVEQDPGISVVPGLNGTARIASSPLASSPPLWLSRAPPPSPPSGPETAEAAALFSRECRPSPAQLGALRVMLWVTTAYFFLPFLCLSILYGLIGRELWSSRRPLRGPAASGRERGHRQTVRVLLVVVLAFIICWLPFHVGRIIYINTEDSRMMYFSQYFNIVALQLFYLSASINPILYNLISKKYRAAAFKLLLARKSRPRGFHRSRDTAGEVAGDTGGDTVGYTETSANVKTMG

Molecule: BAM(8-22)
- EC80 (MRGPRX1): 8580 nM

Molecule: Cortistatin 14 (PCKNFFWKTFSSCK; ends and bridges not checked; cysteine pairing not given here; UniProt Q62949 99-112, looked up) [control agonist]
- EC80 (MRGPRX2; [1]): 737.5 nM
- EC80 (MRGPRX2; screen, CHO, 37C, 2HR): 738 nM

Molecule: GLP II (1-33)
- EC80 (GLP2R; [1]): 2.96 nM
- EC80 (GLP2R; screen, CHO, 37C, 2HR): 8.88 nM

Molecule: GRP: control agonist for GRPR (VPLPAGGGTVLTKMYPRGNHWAVGHLM; not fully specified (C-terminus); UniProt P07492 24-50, looked up)
- EC80 (GRPR; [1]): 1.95 nM
- EC80 (GRPR; screen, U20S, 37C, 2HR): 5.85 nM

Molecule: MCH: control agonist for MCHR1 and MCHR2
- EC80 (MCHR2): 59.3 nM

Molecule: Motilin
- EC80 (MLNR): 5.69 nM

Molecule: Neuromedin U-25 (FRVDEEFQSPFASQSRGYFLFRPRN; ends and bridges not checked; UniProt P48645 142-166, looked up) [control agonist]
- EC80 (NMU1R): 3.63 nM

Molecule: Neuropeptide W23 (WYKHVASPRYHTVGRAAGLLMGL; Neuropeptide W-23; UniProt Q8N729 33-55, looked up) [control agonist]
- EC80 (NPBWR1): 8.1 nM
- EC80 (NPBWR2): 4.04 nM

Molecule: RFRP-3
- EC80 (NPFFR1): 148 nM

B1: CCL27: control agonist (protein, UniProt Q9Y4X3 25-112, looked up)
C-C motif chemokine 27: FLLPPSTACCTQLYRKPLSDKLLRKVIQVELQEADGDCHLQAFVLHLAQRSICIHPQNPSLSQWFEHQERKLHGTLPKLNFGMLRKMG
- EC80 (CCR10; [1]): 90.49 nM
- EC80 (CCR10; screen, U2OS, 37C, 2HR): 30.2 nM
